B1: TRPV6, Q9H1D0 (peptide)
chain: EDGESWEYQI
B2: PTPRZ1, P23471 (peptide)
chain: NIAESLESLV
B3: ZSCAN30, Q86W11 (peptide)
chain: MQHQRTHTRV
B4: SCN8A, Q9UQD0 (peptide)
chain: RQKEVRESKC

biological target: MAGI1_1, Q96QZ7; test: holdup assay; set-up: key: below the threshold = too weak to quantify, mostly under pKd 3.1 to 4; details: plain residues with an end cap or a label only (N-terminal biotin on a linker: ado-ado)
Sequence (Q96QZ7 1-106): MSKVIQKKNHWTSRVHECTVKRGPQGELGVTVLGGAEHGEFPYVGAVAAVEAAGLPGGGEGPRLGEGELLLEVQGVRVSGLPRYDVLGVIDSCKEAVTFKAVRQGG

Binder | pKd
B1 | below the threshold
B2 | below the threshold
B3 | below the threshold
B4 | below the threshold

biological target: SNX27, Q96L92; test: holdup assay; set-up: key: below the threshold = too weak to quantify, mostly under pKd 3.1 to 4; details: plain residues with an end cap or a label only (N-terminal biotin on a linker: ado-ado)

Binder | pKd
B1 | below the threshold
B2 | 5.09
B3 | 4.38
B4 | 5.19

biological target: Inadl_3, Q8NI35; test: holdup assay; set-up: key: below the threshold = too weak to quantify, mostly under pKd 3.1 to 4; details: plain residues with an end cap or a label only (N-terminal biotin on a linker: ado-ado)
Sequence (Q8NI35 359-469): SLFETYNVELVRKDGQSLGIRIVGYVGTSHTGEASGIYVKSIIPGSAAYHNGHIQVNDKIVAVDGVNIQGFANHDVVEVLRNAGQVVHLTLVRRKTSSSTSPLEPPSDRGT

Binder | pKd
B1 | 5.33
B2 | 4.13
B3 | below the threshold
B4 | below the threshold

biological target: PTPN3, P26045; test: holdup assay; set-up: key: below the threshold = too weak to quantify, mostly under pKd 3.1 to 4; details: plain residues with an end cap or a label only (N-terminal biotin on a linker: ado-ado)
Sequence (P26045 505-587): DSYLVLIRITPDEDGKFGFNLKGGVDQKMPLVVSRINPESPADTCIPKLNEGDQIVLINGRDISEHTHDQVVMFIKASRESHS

Binder | pKd
B1 | 4.13
B2 | 4.64
B3 | below the threshold
B4 | 4.6

biological target: T1, ARHGAP21, Q5T5U3; test: holdup assay; set-up: key: below the threshold = too weak to quantify, mostly under pKd 3.1 to 4; details: plain residues with an end cap or a label only (N-terminal biotin on a linker: ado-ado)
T1 sequence (Q5T5U3 45-169, limits assumed, looked up): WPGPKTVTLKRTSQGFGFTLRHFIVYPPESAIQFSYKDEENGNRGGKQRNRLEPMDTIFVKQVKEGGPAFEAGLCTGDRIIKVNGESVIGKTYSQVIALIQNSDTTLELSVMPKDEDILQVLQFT

Binder | pKd
B1 | 3.57
B2 | below the threshold
B3 | 3.92
B4 | below the threshold

biological target: Inadl_10, Q8NI35; test: holdup assay; set-up: key: below the threshold = too weak to quantify, mostly under pKd 3.1 to 4; details: plain residues with an end cap or a label only (N-terminal biotin on a linker: ado-ado)
Sequence (Q8NI35 1673-1763): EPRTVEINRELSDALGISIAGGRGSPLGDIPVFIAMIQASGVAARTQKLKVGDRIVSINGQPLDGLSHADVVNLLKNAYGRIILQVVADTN

Binder | pKd
B1 | below the threshold
B2 | below the threshold
B3 | below the threshold
B4 | below the threshold

biological target: FRMPD3, Q5JV73; test: holdup assay; set-up: key: below the threshold = too weak to quantify, mostly under pKd 3.1 to 4; details: plain residues with an end cap or a label only (N-terminal biotin on a linker: ado-ado)
Sequence (Q5JV73 12-100): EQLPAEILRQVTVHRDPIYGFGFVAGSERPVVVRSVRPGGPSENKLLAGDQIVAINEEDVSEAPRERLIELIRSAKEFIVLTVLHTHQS

Binder | pKd
B1 | below the threshold
B2 | below the threshold
B3 | below the threshold
B4 | below the threshold

biological target: T2, RADIL, Q96JH8; test: holdup assay; set-up: key: below the threshold = too weak to quantify, mostly under pKd 3.1 to 4; details: plain residues with an end cap or a label only (N-terminal biotin on a linker: ado-ado)
T2 sequence (Q96JH8 971-1071, limits assumed, looked up): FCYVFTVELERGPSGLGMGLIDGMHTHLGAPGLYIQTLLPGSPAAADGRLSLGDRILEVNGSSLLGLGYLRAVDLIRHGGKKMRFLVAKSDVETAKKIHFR

Binder | pKd
B1 | 3.69
B2 | 4.3
B3 | 4.14
B4 | below the threshold

biological target: SCRIB_1, Q14160; test: holdup assay; set-up: key: below the threshold = too weak to quantify, mostly under pKd 3.1 to 4; details: plain residues with an end cap or a label only (N-terminal biotin on a linker: ado-ado)
Sequence (Q14160 718-814): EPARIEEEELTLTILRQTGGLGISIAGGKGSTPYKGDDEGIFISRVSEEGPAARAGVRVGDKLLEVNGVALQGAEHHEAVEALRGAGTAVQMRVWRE

Binder | pKd
B1 | below the threshold
B2 | 3.87
B3 | 3.68
B4 | 4.53

biological target: T3, MPP2, Q14168; test: holdup assay; set-up: key: below the threshold = too weak to quantify, mostly under pKd 3.1 to 4; details: plain residues with an end cap or a label only (N-terminal biotin on a linker: ado-ado)
T3 sequence (Q14168 180-250, limits assumed, looked up): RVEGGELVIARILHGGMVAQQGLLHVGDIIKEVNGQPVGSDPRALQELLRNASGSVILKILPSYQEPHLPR

Binder | pKd
B1 | 3.57
B2 | below the threshold
B3 | below the threshold
B4 | below the threshold

biological target: GIPC2, Q8TF65; test: holdup assay; set-up: key: below the threshold = too weak to quantify, mostly under pKd 3.1 to 4; details: plain residues with an end cap or a label only (N-terminal biotin on a linker: ado-ado)
Sequence (Q8TF65 112-203): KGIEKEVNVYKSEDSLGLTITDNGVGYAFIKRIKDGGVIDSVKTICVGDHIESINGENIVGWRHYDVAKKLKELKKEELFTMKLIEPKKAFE

Binder | pKd
B1 | below the threshold
B2 | below the threshold
B3 | 3.48
B4 | 4.05

biological target: NHERF4_1, Q86UT5-2; test: holdup assay; set-up: key: below the threshold = too weak to quantify, mostly under pKd 3.1 to 4; details: plain residues with an end cap or a label only (N-terminal biotin on a linker: ado-ado)
Sequence (Q86UT5 other isoform, or with tags, fused parts or gaps): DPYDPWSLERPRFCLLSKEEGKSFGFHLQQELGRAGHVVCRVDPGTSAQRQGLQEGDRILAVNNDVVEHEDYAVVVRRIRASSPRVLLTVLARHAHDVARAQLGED

Binder | pKd
B1 | below the threshold
B2 | 3.7
B3 | below the threshold
B4 | 3.91

biological target: GRASP, Q7Z6J2; test: holdup assay; set-up: key: below the threshold = too weak to quantify, mostly under pKd 3.1 to 4; details: plain residues with an end cap or a label only (N-terminal biotin on a linker: ado-ado)
Sequence (Q7Z6J2 96-193): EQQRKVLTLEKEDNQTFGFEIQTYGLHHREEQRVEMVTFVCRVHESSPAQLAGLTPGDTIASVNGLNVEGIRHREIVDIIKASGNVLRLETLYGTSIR

Binder | pKd
B1 | below the threshold
B2 | 3.74
B3 | 4.34
B4 | below the threshold

biological target: T4, FRMPD1, Q5SYB0; test: holdup assay; set-up: key: below the threshold = too weak to quantify, mostly under pKd 3.1 to 4; details: plain residues with an end cap or a label only (N-terminal biotin on a linker: ado-ado)
T4 sequence (Q5SYB0 52-145, limits assumed, looked up): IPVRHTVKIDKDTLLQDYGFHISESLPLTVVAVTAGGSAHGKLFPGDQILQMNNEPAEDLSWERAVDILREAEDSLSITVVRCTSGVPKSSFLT

Binder | pKd
B1 | below the threshold
B2 | below the threshold
B3 | below the threshold
B4 | below the threshold

biological target: MAGI2_6, Q86UL8; test: holdup assay; set-up: key: below the threshold = too weak to quantify, mostly under pKd 3.1 to 4; details: plain residues with an end cap or a label only (N-terminal biotin on a linker: ado-ado)
Sequence (Q86UL8 1141-1229): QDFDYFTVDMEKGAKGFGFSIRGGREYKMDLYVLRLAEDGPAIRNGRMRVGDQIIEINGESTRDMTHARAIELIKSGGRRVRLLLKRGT

Binder | pKd
B1 | 3.55
B2 | 3.96
B3 | below the threshold
B4 | below the threshold

biological target: GRIP2_6, Q9C0E4; test: holdup assay; set-up: key: below the threshold = too weak to quantify, mostly under pKd 3.1 to 4; details: plain residues with an end cap or a label only (N-terminal biotin on a linker: ado-ado)
Sequence (Q9C0E4 648-740): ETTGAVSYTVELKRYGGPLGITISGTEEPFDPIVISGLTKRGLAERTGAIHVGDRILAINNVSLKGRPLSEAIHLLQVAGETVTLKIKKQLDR

Binder | pKd
B1 | 3.8
B2 | below the threshold
B3 | below the threshold
B4 | below the threshold

biological target: LIMK2, P53671; test: holdup assay; set-up: key: below the threshold = too weak to quantify, mostly under pKd 3.1 to 4; details: plain residues with an end cap or a label only (N-terminal biotin on a linker: ado-ado)
Sequence (P53671 143-248): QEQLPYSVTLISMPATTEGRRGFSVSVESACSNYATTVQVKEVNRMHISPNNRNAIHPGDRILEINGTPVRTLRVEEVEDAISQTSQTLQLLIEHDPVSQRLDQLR

Binder | pKd
B1 | below the threshold
B2 | below the threshold
B3 | below the threshold
B4 | below the threshold

biological target: MAST2, Q6P0Q8; test: holdup assay; set-up: key: below the threshold = too weak to quantify, mostly under pKd 3.1 to 4; details: plain residues with an end cap or a label only (N-terminal biotin on a linker: ado-ado)
Sequence (Q6P0Q8 1099-1202): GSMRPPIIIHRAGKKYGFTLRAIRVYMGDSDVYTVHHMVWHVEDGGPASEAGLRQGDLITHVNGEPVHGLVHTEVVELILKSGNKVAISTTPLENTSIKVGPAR

Binder | pKd
B1 | 4.78
B2 | 4.79
B3 | 5.21
B4 | 4.82

biological target: Inadl_8, Q8NI35; test: holdup assay; set-up: key: below the threshold = too weak to quantify, mostly under pKd 3.1 to 4; details: plain residues with an end cap or a label only (N-terminal biotin on a linker: ado-ado)
Sequence (Q8NI35 1425-1530): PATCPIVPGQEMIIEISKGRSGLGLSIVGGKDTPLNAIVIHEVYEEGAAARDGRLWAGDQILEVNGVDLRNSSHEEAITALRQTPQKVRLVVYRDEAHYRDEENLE

Binder | pKd
B1 | below the threshold
B2 | below the threshold
B3 | 4.16
B4 | 3.95

biological target: T5, PARD3B_1, Q8TEW8; test: holdup assay; set-up: key: below the threshold = too weak to quantify, mostly under pKd 3.1 to 4; details: plain residues with an end cap or a label only (N-terminal biotin on a linker: ado-ado)
T5 sequence (Q8TEW8 196-299, limits assumed, looked up): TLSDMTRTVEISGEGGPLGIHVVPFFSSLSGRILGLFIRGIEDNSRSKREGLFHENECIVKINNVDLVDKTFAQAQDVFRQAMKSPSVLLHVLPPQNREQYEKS

Binder | pKd
B1 | 3.85
B2 | below the threshold
B3 | below the threshold
B4 | below the threshold

biological target: T6, CARD11, Q9BXL7; test: holdup assay; set-up: key: below the threshold = too weak to quantify, mostly under pKd 3.1 to 4; details: plain residues with an end cap or a label only (N-terminal biotin on a linker: ado-ado)
T6 sequence (Q9BXL7 662-765, limits assumed, looked up): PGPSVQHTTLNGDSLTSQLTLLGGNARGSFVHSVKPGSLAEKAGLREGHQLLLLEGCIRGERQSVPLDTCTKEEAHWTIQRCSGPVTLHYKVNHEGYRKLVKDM

Binder | pKd
B1 | below the threshold
B2 | below the threshold
B3 | below the threshold
B4 | below the threshold

biological target: MAGI2_5, Q86UL8; test: holdup assay; set-up: key: below the threshold = too weak to quantify, mostly under pKd 3.1 to 4; details: plain residues with an end cap or a label only (N-terminal biotin on a linker: ado-ado)
Sequence (Q86UL8 915-1017): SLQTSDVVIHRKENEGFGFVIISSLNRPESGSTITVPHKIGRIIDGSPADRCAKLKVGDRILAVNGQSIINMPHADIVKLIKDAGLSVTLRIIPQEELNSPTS

Binder | pKd
B1 | below the threshold
B2 | 5.47
B3 | 3.64
B4 | 3.61

biological target: DLG2_2, Q15700; test: holdup assay; set-up: key: below the threshold = too weak to quantify, mostly under pKd 3.1 to 4; details: plain residues with an end cap or a label only (N-terminal biotin on a linker: ado-ado)
Sequence (Q15700 189-283): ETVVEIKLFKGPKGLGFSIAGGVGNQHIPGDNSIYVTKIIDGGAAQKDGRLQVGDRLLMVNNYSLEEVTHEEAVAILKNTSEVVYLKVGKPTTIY

Binder | pKd
B1 | below the threshold
B2 | 4.72
B3 | 4.76
B4 | below the threshold

biological target: T7, LIN7A, O14910; test: holdup assay; set-up: key: below the threshold = too weak to quantify, mostly under pKd 3.1 to 4; details: plain residues with an end cap or a label only (N-terminal biotin on a linker: ado-ado)
T7 sequence (O14910 103-200, limits assumed, looked up): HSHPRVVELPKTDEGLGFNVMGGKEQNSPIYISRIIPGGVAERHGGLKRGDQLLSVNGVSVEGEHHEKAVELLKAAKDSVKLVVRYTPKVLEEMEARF

Binder | pKd
B1 | below the threshold
B2 | 4.04
B3 | below the threshold
B4 | below the threshold

biological target: LDB3, O75112; test: holdup assay; set-up: key: below the threshold = too weak to quantify, mostly under pKd 3.1 to 4; details: plain residues with an end cap or a label only (N-terminal biotin on a linker: ado-ado)
Sequence (O75112 1-94): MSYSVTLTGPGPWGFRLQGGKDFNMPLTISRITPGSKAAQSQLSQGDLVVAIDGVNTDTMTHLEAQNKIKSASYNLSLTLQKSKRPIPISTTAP

Binder | pKd
B1 | below the threshold
B2 | below the threshold
B3 | below the threshold
B4 | below the threshold

biological target: ARHGEF12, Q9NZN5-2; test: holdup assay; set-up: key: below the threshold = too weak to quantify, mostly under pKd 3.1 to 4; details: plain residues with an end cap or a label only (N-terminal biotin on a linker: ado-ado)
Sequence (Q9NZN5 other isoform, or with tags, fused parts or gaps): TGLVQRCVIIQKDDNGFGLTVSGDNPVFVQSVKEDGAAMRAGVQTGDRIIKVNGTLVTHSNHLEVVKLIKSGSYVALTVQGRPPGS

Binder | pKd
B1 | below the threshold
B2 | below the threshold
B3 | 3.96
B4 | 3.64

biological target: DLG4_1, P78352; test: holdup assay; set-up: key: below the threshold = too weak to quantify, mostly under pKd 3.1 to 4; details: plain residues with an end cap or a label only (N-terminal biotin on a linker: ado-ado)
Sequence (P78352 62-152): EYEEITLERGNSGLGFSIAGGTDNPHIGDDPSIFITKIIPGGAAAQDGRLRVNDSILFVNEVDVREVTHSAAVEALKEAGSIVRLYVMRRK

Binder | pKd
B1 | below the threshold
B2 | 4.65
B3 | 4.59
B4 | below the threshold

biological target: T8, LNX2_3, Q8N448; test: holdup assay; set-up: key: below the threshold = too weak to quantify, mostly under pKd 3.1 to 4; details: plain residues with an end cap or a label only (N-terminal biotin on a linker: ado-ado)
T8 sequence (Q8N448 463-564, limits assumed, looked up): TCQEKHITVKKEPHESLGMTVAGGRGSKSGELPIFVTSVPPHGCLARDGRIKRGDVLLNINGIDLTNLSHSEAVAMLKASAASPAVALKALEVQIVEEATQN

Binder | pKd
B1 | below the threshold
B2 | below the threshold
B3 | below the threshold
B4 | below the threshold

biological target: T9, PDZRN3_1, Q9UPQ7; test: holdup assay; set-up: key: below the threshold = too weak to quantify, mostly under pKd 3.1 to 4; details: plain residues with an end cap or a label only (N-terminal biotin on a linker: ado-ado)
T9 sequence (Q9UPQ7 244-349, limits assumed, looked up): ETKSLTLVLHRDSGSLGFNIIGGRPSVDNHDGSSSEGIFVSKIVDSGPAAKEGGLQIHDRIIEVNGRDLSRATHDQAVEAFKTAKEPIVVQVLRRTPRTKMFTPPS

Binder | pKd
B1 | below the threshold
B2 | 4.22
B3 | below the threshold
B4 | 4.02
